US20240034774A1 (Gilead, published 2024)

Experiments:
BSA = BSA (UniProt P02769 25-607); assay: single-point ELISA, BSA control
gp120 Bal = gp120 Bal (HIV (Bal)); assay: single-point ELISA at EC50 conc. of A-1
gp120 CAAN = gp120 CAAN (HIV (CAAN)); assay: single-point ELISA at EC50 conc. of A-1
gp120 SHIV SF162 P3 = gp120 SHIV SF162 P3 (SHIV SF162 P3); assay: single-point ELISA at EC50 conc. of A-1

| Binder | ELISA A450 (BSA) | ELISA A450 (gp120 Bal) | ELISA A450 (gp120 CAAN) | ELISA A450 (gp120 SHIV SF162 P3) |
| --- | --- | --- | --- | --- |
| 1.12.17-1 (antibody, human IgG1, kappa, V domains shown) VH: QVQLLQSGAAVTKPGASVRVSCEASGYNIRDYFIHWVRQAPGQGLQWVGWINPKTGQPNNPRQFQGRVSLTRHASWDFDTFSFYMDLKALRSDDTAVYFCARQRSDYWDFDVWGSGTQVTVSS VL: DIQMTQSPSSLSASVGDTVTITCQANGYLNWYQQRRGKAPKLLIYDGSKLERGVPSRFSGRRWGQEYNLTINNLQPEDIATYFCQVYEFFGPGTRLDLKR | 0.06 A450 | 0.9 A450 | 0.84 A450 | 0.75 A450 |
| 1.13.17-1 (antibody, human IgG1, kappa, V domains shown) VH: QVQLLQSGAAVTKPGASVRVSCEASGYNIRDYFMHWVRQAPGQGLQWVGWINPKTGQPNNPRQFQGRVSLTRHASWDFDTFSFYMDLKALRSDDTAVYFCARQRSDYWDFDVWGSGTQVTVSS VL: DIQMTQSPSSLSASVGDTVTITCQANGYLNWYQQRRGKAPKLLIYDGSKLERGVPSRFSGRRWGQEYNLTINNLQPEDIATYFCQVYEFFGPGTRLDLKR | 0.06 A450 | 1.02 A450 | 0.78 A450 | 0.69 A450 |
| 1.20.1-1 (antibody, human IgG1, kappa) heavy: QVQLLQSGAAVTKPGASVRVSCEASGYNIRDYFIHWWRQAPGQGLQWVGWINPKTGQPNNPRQFQGRVTMTRHASWDFDTFSFYMDLKALRSDDTAVYFCARQRSDYWDFDVWGSGTQVTVSSASTKGPSVFPLAPSSKSTSGGTAALGCLVKDYFPEPVTVSWNSGALTSGVHTFPAVLQSSGLYSLSSVVTVPSSSLGTQTYICNVNHKPSNTKVDKKVEPKSCDKTHTCPPCPAPELLAGPDVFLFPPKPKDTLMISRTPEVTCVVVDVSHEDPEVKFNWYVDGVEVHNAKTKPREEQYNSTYRVVSVLTVLHQDWLNGKEYKCKVSNKALPLPEEKTISKAKGQPREPQVYTLPPSREEMTKNQVSLTCLVKGFYPSDIAVEWESNGQPENNYKTTPPVLDSDGSFFLYSKLTVDKSRWQQGNVFSCSVLHEALHSHYTQKSLSLSPGK light: DIQMTQSPSSLSASVGDTVTITCQANGYLNWYQQRRGKAPKLLIYDGSKLERGVPSRFSGRRWGQEYNLTINNLQPEDIATYFCQVYEFVVPGTRLDLKRTVAAPSVFIFPPSDEQLKSGTASVVCLLNNFYPREAKVQWKVDNALQSGNSQESVTEQDSKDSTYSLSSTLTLSKADYEKHKVYACEVTHQGLSSPVTKSFNRGEC | 0.06 A450 | 0.89 A450 | 0.8 A450 | 0.91 A450 |
| 1.15.1-1 (antibody, human IgG1, kappa) heavy: QVQLLQSGAAVTKPGASVRVSCEASGYNIRDYFIHWWRQAPGQGLQWVGWINPKWGQPNNPRQFQGRVSLTRHASWDFDTFSFYMDLKALRSDDTAVYFCARQRSDYWDFDVWGSGTQVTVSSASTKGPSVFPLAPSSKSTSGGTAALGCLVKDYFPEPVTVSWNSGALTSGVHTFPAVLQSSGLYSLSSVVTVPSSSLGTQTYICNVNHKPSNTKVDKKVEPKSCDKTHTCPPCPAPELLAGPDVFLFPPKPKDTLMISRTPEVTCVVVDVSHEDPEVKFNWYVDGVEVHNAKTKPREEQYNSTYRVVSVLTVLHQDWLNGKEYKCKVSNKALPLPEEKTISKAKGQPREPQVYTLPPSREEMTKNQVSLTCLVKGFYPSDIAVEWESNGQPENNYKTTPPVLDSDGSFFLYSKLTVDKSRWQQGNVFSCSVLHEALHSHYTQKSLSLSPGK light: DIQMTQSPSSLSASVGDTVTITCQANGYLNWYQQRRGKAPKLLIYDGSKLERGVPSRFSGRRWGQEYNLTINNLQPEDIATYFCQVYEFVVPGTRLDLKRTVAAPSVFIFPPSDEQLKSGTASVVCLLNNFYPREAKVQWKVDNALQSGNSQESVTEQDSKDSTYSLSSTLTLSKADYEKHKVYACEVTHQGLSSPVTKSFNRGEC | 0.06 A450 | 0.87 A450 | 1.38 A450 | 1.24 A450 |
| 1.17.1-1 (antibody, human IgG1, kappa) heavy: QVQLLQSGAAVTKPGASVRVSCEASGYNIRDYFIHWWRQAPGQGLQWVGWINPKAGQPNNPRQFQGRVSLTRHASWDFDTFSFYMDLKALRSDDTAVYFCARQRSDYWDFDVWGSGTQVTVSSASTKGPSVFPLAPSSKSTSGGTAALGCLVKDYFPEPVTVSWNSGALTSGVHTFPAVLQSSGLYSLSSVVTVPSSSLGTQTYICNVNHKPSNTKVDKKVEPKSCDKTHTCPPCPAPELLAGPDVFLFPPKPKDTLMISRTPEVTCVVVDVSHEDPEVKFNWYVDGVEVHNAKTKPREEQYNSTYRVVSVLTVLHQDWLNGKEYKCKVSNKALPLPEEKTISKAKGQPREPQVYTLPPSREEMTKNQVSLTCLVKGFYPSDIAVEWESNGQPENNYKTTPPVLDSDGSFFLYSKLTVDKSRWQQGNVFSCSVLHEALHSHYTQKSLSLSPGK light: DIQMTQSPSSLSASVGDTVTITCQANGYLNWYQQRRGKAPKLLIYDGSKLERGVPSRFSGRRWGQEYNLTINNLQPEDIATYFCQVYEFVVPGTRLDLKRTVAAPSVFIFPPSDEQLKSGTASVVCLLNNFYPREAKVQWKVDNALQSGNSQESVTEQDSKDSTYSLSSTLTLSKADYEKHKVYACEVTHQGLSSPVTKSFNRGEC | 0.06 A450 | 0.84 A450 | 0.7 A450 | 0.31 A450 |
| 1.14.17-1 (antibody, human IgG1, kappa, V domains shown) VH: QVQLLQSGAAVTKPGASVRVSCEASGYNIRDYFMHWVRQAPGQGLQWVGWINPKTGQPNNPRQFQGRVSLTRHASWDFDTFSAYMDLKALRSDDTAVYFCARQRSDYWDFDVWGSGTQVTVSS VL: DIQMTQSPSSLSASVGDTVTITCQANGYLNWYQQRRGKAPKLLIYDGSKLERGVPSRFSGRRWGQEYNLTINNLQPEDIATYFCQVYEFFGPGTRLDLKR | 0.1 A450 | 0.89 A450 | 0.43 A450 | 0.24 A450 |
| 1.18.1-1 (antibody, human IgG1, kappa) heavy: QVQLLQSGAAVTKPGASVRVSCEASGYNIRDYFIHWWRQAPGQGLQWVGWINPKHGQPNNPRQFQGRVSLTRHASWDFDTFSFYMDLKALRSDDTAVYFCARQRSDYWDFDVWGSGTQVTVSSASTKGPSVFPLAPSSKSTSGGTAALGCLVKDYFPEPVTVSWNSGALTSGVHTFPAVLQSSGLYSLSSVVTVPSSSLGTQTYICNVNHKPSNTKVDKKVEPKSCDKTHTCPPCPAPELLAGPDVFLFPPKPKDTLMISRTPEVTCVVVDVSHEDPEVKFNWYVDGVEVHNAKTKPREEQYNSTYRVVSVLTVLHQDWLNGKEYKCKVSNKALPLPEEKTISKAKGQPREPQVYTLPPSREEMTKNQVSLTCLVKGFYPSDIAVEWESNGQPENNYKTTPPVLDSDGSFFLYSKLTVDKSRWQQGNVFSCSVLHEALHSHYTQKSLSLSPGK light: DIQMTQSPSSLSASVGDTVTITCQANGYLNWYQQRRGKAPKLLIYDGSKLERGVPSRFSGRRWGQEYNLTINNLQPEDIATYFCQVYEFVVPGTRLDLKRTVAAPSVFIFPPSDEQLKSGTASVVCLLNNFYPREAKVQWKVDNALQSGNSQESVTEQDSKDSTYSLSSTLTLSKADYEKHKVYACEVTHQGLSSPVTKSFNRGEC | 0.07 A450 | 0.97 A450 | 1.18 A450 | 1.36 A450 |
| 1.13.15-1 (antibody, human IgG1, kappa) heavy: QVQLLQSGAAVTKPGASVRVSCEASGYNIRDYFMHWVRQAPGQGLQWVGWINPKTGQPNNPRQFQGRVSLTRHASWDFDTFSFYMDLKALRSDDTAVYFCARQRSDYWDFDVWGSGTQVTVSSASTKGPSVFPLAPSSKSTSGGTAALGCLVKDYFPEPVTVSWNSGALTSGVHTFPAVLQSSGLYSLSSVVTVPSSSLGTQTYICNVNHKPSNTKVDKKVEPKSCDKTHTCPPCPAPELLAGPDVFLFPPKPKDTLMISRTPEVTCVVVDVSHEDPEVKFNWYVDGVEVHNAKTKPREEQYNSTYRVVSVLTVLHQDWLNGKEYKCKVSNKALPLPEEKTISKAKGQPREPQVYTLPPSREEMTKNQVSLTCLVKGFYPSDIAVEWESNGQPENNYKTTPPVLDSDGSFFLYSKLTVDKSRWQQGNVFSCSVLHEALHSHYTQKSLSLSPGK light: DIQMTQSPSSLSASVGDTVTITCQANGYLNWYQQRRGKAPKLLIYDGSKLERGVPSRFSGRRWGQEYNLTINNLQPEDIATYFCQVYEFFVPGTRLDLKRTVAAPSVFIFPPSDEQLKSGTASVVCLLNNFYPREAKVQWKVDNALQSGNSQESVTEQDSKDSTYSLSSTLTLSKADYEKHKVYACEVTHQGLSSPVTKSFNRGEC | 0.06 A450 | 0.7 A450 | 0.6 A450 | 0.52 A450 |
| 1.16.1-1 (antibody, human IgG1, kappa) heavy: QVQLLQSGAAVTKPGASVRVSCEASGYNIRDYFIHWWRQAPGQGLQWVGWINPKGGQPNNPRQFQGRVSLTRHASWDFDTFSFYMDLKALRSDDTAVYFCARQRSDYWDFDVWGSGTQVTVSSASTKGPSVFPLAPSSKSTSGGTAALGCLVKDYFPEPVTVSWNSGALTSGVHTFPAVLQSSGLYSLSSVVTVPSSSLGTQTYICNVNHKPSNTKVDKKVEPKSCDKTHTCPPCPAPELLAGPDVFLFPPKPKDTLMISRTPEVTCVVVDVSHEDPEVKFNWYVDGVEVHNAKTKPREEQYNSTYRVVSVLTVLHQDWLNGKEYKCKVSNKALPLPEEKTISKAKGQPREPQVYTLPPSREEMTKNQVSLTCLVKGFYPSDIAVEWESNGQPENNYKTTPPVLDSDGSFFLYSKLTVDKSRWQQGNVFSCSVLHEALHSHYTQKSLSLSPGK light: DIQMTQSPSSLSASVGDTVTITCQANGYLNWYQQRRGKAPKLLIYDGSKLERGVPSRFSGRRWGQEYNLTINNLQPEDIATYFCQVYEFVVPGTRLDLKRTVAAPSVFIFPPSDEQLKSGTASVVCLLNNFYPREAKVQWKVDNALQSGNSQESVTEQDSKDSTYSLSSTLTLSKADYEKHKVYACEVTHQGLSSPVTKSFNRGEC | 0.07 A450 | 0.92 A450 | 0.87 A450 | 0.9 A450 |
| 1.19.1-1 (antibody, human IgG1, kappa) heavy: QVQLLQSGAAVTKPGASVRVSCEASGYNIRDYFIHWWRQAPGQGLQWVGWINPKTGQPNNPRQFQGRVTLTRHASWDFDTFSFYMDLKALRSDDTAVYFCARQRSDYWDFDVWGSGTQVTVSSASTKGPSVFPLAPSSKSTSGGTAALGCLVKDYFPEPVTVSWNSGALTSGVHTFPAVLQSSGLYSLSSVVTVPSSSLGTQTYICNVNHKPSNTKVDKKVEPKSCDKTHTCPPCPAPELLAGPDVFLFPPKPKDTLMISRTPEVTCVVVDVSHEDPEVKFNWYVDGVEVHNAKTKPREEQYNSTYRVVSVLTVLHQDWLNGKEYKCKVSNKALPLPEEKTISKAKGQPREPQVYTLPPSREEMTKNQVSLTCLVKGFYPSDIAVEWESNGQPENNYKTTPPVLDSDGSFFLYSKLTVDKSRWQQGNVFSCSVLHEALHSHYTQKSLSLSPGK light: DIQMTQSPSSLSASVGDTVTITCQANGYLNWYQQRRGKAPKLLIYDGSKLERGVPSRFSGRRWGQEYNLTINNLQPEDIATYFCQVYEFVVPGTRLDLKRTVAAPSVFIFPPSDEQLKSGTASVVCLLNNFYPREAKVQWKVDNALQSGNSQESVTEQDSKDSTYSLSSTLTLSKADYEKHKVYACEVTHQGLSSPVTKSFNRGEC | 0.06 A450 | 0.85 A450 | 0.93 A450 | 0.96 A450 |
